This note sets out measurements from patent US20250136696A1 (HARBOUR BIOMED SHANGHAI, published 2025).

Assay [1] concerns the target T1, human B7-H7 on the cell surface (human, UniProt Q9UM44 23-414).
T1 construct: whole, on cells; also called hB7-H7; hu B7-H7
T1 sequence (looked up): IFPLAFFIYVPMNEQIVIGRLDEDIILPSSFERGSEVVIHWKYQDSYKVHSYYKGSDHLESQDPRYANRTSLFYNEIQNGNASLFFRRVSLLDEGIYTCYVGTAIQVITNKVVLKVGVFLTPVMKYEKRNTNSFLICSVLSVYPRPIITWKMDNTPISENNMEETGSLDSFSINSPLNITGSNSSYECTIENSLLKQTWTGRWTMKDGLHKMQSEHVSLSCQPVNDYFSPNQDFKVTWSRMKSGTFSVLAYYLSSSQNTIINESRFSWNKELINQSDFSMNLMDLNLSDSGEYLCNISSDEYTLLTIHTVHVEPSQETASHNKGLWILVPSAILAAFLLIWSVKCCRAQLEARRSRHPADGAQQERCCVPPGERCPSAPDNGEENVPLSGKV
In words: flow cytometry, HCC827 cells. In short, it runs like this: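 Cells at 1×10⁶ cells/mL were incubated with antibody in a 3-fold dilution series for 2 hours at 4° C in the dark, then washed in cold PBS with 2% BSA. Surface binding was read as fluorescence signal by flow cytometry.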
(In general: In flow cytometry, cells or beads pass a laser one at a time.)

Assay [2] addresses T1, human B7-H7 on the cell surface. The assay can be described thus: flow cytometry, HEK-293/hu B7-H7 cells. The protocol:
(§1) This example was intended to study the in vitro activity of H2L2 monoclonal antibodies against human B7-H7 in binding to human/cynomolgus monkey B7-H7. Since homologous molecules of B7-H7 were not present in mice, the detection was not performed. […] The cells were adjusted to a cell density of 1×10⁶ cells/mL, respectively. The cells were seeded in a 96-well V-bottom plate (Corning, #3894) at 100 μL/well, and the antibody to be tested at 2× final concentration with 3-fold concentration gradient dilution was then added at 100 μL/well. The cells were incubated at 4° C. for 2 hours in the dark. After the incubation, the cells were rinsed twice by adding pre-chilled PBS containing 2% BSA at 100 μl/well, and centrifuged at 500 g at 4° C. for 5 minutes, and the supernatant was discarded. […] The cells were washed twice by adding pre-chilled PBS containing 2% BSA at 100 μL/well, and centrifuged at 500 g at 4° C. for 5 minutes, and the supernatant was discarded. Finally, the cells were resuspended in pre-chilled PBS containing 2% BSA at 200 μL/well, and the fluorescence signal values were read using an ACEA Novocyte3000 flow cytometer.

For assay [3], the target named is T2, cynomolgus monkey B7-H7 on the cell surface (cynomolgus monkey).
T2 construct: whole, on cells; also called cyno B7-H7
The assay can be described thus: flow cytometry, HEK-293/cyno B7-H7 cells. As for the experimental part: as §1

Assay [4] addresses T3, biotinylated human B7-H7 protein (Acro Biosystems, B77-H82F5) (human, UniProt Q9UM44 23-344, biotinylated).
T3 construct: Bought soluble protein; also called biotin-B7H7 protein
T3 sequence (looked up): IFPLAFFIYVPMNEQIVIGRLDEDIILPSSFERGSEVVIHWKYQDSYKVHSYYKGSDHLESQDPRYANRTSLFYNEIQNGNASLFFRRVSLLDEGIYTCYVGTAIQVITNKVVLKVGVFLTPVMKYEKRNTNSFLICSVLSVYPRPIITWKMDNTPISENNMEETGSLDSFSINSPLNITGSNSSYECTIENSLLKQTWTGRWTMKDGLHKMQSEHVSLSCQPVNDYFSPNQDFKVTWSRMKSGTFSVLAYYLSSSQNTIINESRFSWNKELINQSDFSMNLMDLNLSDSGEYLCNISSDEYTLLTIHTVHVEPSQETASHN
The assay can be described thus: flow cytometry, blocking of biotinylated human B7-H7 binding to CHO-K1/KIR3DL3 cells.

Assay [5] concerns the target T3, biotinylated human B7-H7 protein (Acro …). The assay can be described thus: BLI epitope competition on SA-captured biotinylated B7-H7; competitor (first antibody) PR003249.

As a reminder, the EC50 is the concentration needed to bring the measured effect to its halfway point. One may read the IC50 as the midpoint of a concentration-inhibition curve.

B1: PR003260 (antibody, human IgG1, kappa, V domains shown)
VH: QVQLVESGGGVVQPGRSLRLPCAASGFTFSRYGMHWVRQAPGKGLEWVADIWYDGSKKYYADSVKGRFTISRDNSKNTLYLQMNSLRAEDTAVYFCTRDGGYSYGPFDYWGQGTLVTVSS
VL: EIVMTQSPATLSVSPGERATLSCRASQSVSSNLAWYQQKPGQAPRLLIYYASTRAPGIPARFSGSESGTEFTLTISSLQSEDFAVYYCQQYNIWPYTFGQGTKLEIKR
notes: Human IgG1; also called 70F3B1
With B1, the figures for the EC50 in assay [1], in assay [2] and in assay [3] were 0.0439 nM, 1.13 nM and 0.588 nM, respectively. Moreover, the “Maximum MFI” value in assay [1] is 53300 MFI; in assay [2] it was 807000 MFI; in assay [3], 447000 MFI. Also, the IC50 in assay [4] amounted to 6.46 nM. Moreover, in assay [4], the “Maximum inhibition rate (%)” value amounted to 106%. The “Competitive inhibition rate (%)” value in assay [5] is -3.18%.

B2: PR003263 (antibody, human IgG1, kappa, V domains shown)
VH: QVQLVESGGGVVQPGRSLRLSCAASGFTFSYYGLNWVRQAPGKGLEWVAVIWFDGTNKYYADSVKGRFTISRDDSKNTLYLQMNSLRAEDTAVYYCARGYGSGSYYNYVMDAWGQGASVTVSS
VL: EIVMTQSPATLSVSPGERATLSCRASQSVSSNLAWYQQKPGQAPRLLIYGASTGATGIPARFSGSGSGTDFTLTISSLQSEDFAVYYCQQYYKWPLTFGGGTKVEIKR
notes: Human IgG1; also called 77E6C4
For B2, in assay [1], it took 0.0789 nM to reach a half-maximal effect (EC50) and the “Maximum MFI” value was determined as 53200 MFI. Further, in assay [2], the midpoint of the response, the EC50, lay at 1.06 nM and the “Maximum MFI” value came out at 763000 MFI. In assay [3], it took 0.556 nM to reach a half-maximal effect (EC50) and the “Maximum MFI” value stood at 410000 MFI. Also, in assay [4], the IC50 amounted to 6.23 nM and the “Maximum inhibition rate (%)” value was 103%. Besides, the “Competitive inhibition rate (%)” value in assay [5] is -0.324%.

B3: PR003264 (antibody, human IgG1, kappa)
heavy: not shown
light: DIQLTQSPSFLSASVGDRVTITCRASQGISSYFAWYQQKPGKAPKLLIYAASTLQSGVPSRFSGSGSGTEFTLTISSLQPEDFATYYCQHLNRYPWTFGQGTKVEIKRTVAAPSVFIFPPSDEQLKSGTASVVCLLNNFYPREAKVQWKVDNALQSGNSQESVTEQDSKDSTYSLSSTLTLSKADYEKHKVYACEVTHQGLSSPVTKSFNRGEC
notes: Human IgG1; also called 77G10D3
Turning to B3, in assay [1], it took 0.618 nM to reach a half-maximal effect (EC50) and the “Maximum MFI” value came out at 57000 MFI. In assay [2], it took 1.68 nM to reach a half-maximal effect (EC50) and the “Maximum MFI” value came out at 756000 MFI. Moreover, in assay [3], the midpoint of the response, the EC50, lay at 0.829 nM and the “Maximum MFI” value was 290000 MFI. For the same molecule, in assay [4], the IC50 was determined as 8.56 nM and the “Maximum inhibition rate (%)” value came out at 104%. In addition, the “Competitive inhibition rate (%)” value in assay [5] worked out at 109%.

B4: PR004263 (antibody, human IgG1, kappa, L234A L235A)
heavy: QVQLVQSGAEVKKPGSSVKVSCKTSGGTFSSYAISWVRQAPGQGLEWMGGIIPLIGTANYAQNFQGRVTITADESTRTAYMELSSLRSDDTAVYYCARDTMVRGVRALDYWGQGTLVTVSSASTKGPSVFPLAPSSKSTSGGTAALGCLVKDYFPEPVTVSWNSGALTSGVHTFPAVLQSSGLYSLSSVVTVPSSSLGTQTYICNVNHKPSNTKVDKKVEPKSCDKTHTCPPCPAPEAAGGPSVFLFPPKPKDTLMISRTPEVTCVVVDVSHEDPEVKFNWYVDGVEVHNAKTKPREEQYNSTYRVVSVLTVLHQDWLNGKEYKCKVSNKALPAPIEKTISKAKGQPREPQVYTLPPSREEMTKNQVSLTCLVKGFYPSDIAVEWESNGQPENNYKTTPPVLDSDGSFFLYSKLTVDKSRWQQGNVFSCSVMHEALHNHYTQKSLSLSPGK
light: DIQLTQSPSFLSASVGDRVTITCRASQGISSYFAWYQQKPGKAPKLLIYAASTLQSGVPSRFSGSGSGTEFTLTISSLQPEDFATYYCQHLNRYPWTFGQGTKVEIKRTVAAPSVFIFPPSDEQLKSGTASVVCLLNNFYPREAKVQWKVDNALQSGNSQESVTEQDSKDSTYSLSSTLTLSKADYEKHKVYACEVTHQGLSSPVTKSFNRGEC
notes: Variant of PR003264; Human IgG1 with LALA mutation in Fc
B4: in assay [4], the IC50 was found to be 8.77 nM and the “Maximum inhibition rate (%)” value worked out at 99.9%.

B5: PR003251 (antibody, human IgG1, kappa, V domains shown)
VH: QVQLVESGGGVVQPGRSLRLSCAVSGFTFSRYGMHWVRQAPGKGLDWVAVIWYNGNNKYYTDSVKGRFTISRDNSKNTLFLQMNSLRAEDTAVYYCARDGAYSYGPFDYWGQGTLVTVSS
VL: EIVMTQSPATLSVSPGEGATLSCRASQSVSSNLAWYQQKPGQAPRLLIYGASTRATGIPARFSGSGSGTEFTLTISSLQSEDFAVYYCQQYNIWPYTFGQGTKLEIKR
notes: Human IgG1; also called 29F2C8
Consider B5, for which the figures for the EC50 in assay [1], in assay [2] and in assay [3] were 0.0373 nM, 1.07 nM and 0.522 nM, respectively. For the same molecule, the “Maximum MFI” value in assay [1] came out at 53300 MFI; in assay [2] it was 813000 MFI; in assay [3] it was 430000 MFI. The molecule also yielded an IC50 in assay [4] of 6.34 nM. For the same molecule, the “Maximum inhibition rate (%)” value in assay [4] turned out to be 96.4%. Besides, the “Competitive inhibition rate (%)” value in assay [5] was -6.54%.

B6: PR003254 (antibody, human IgG1, kappa, V domains shown)
VH: QVQLVESGGGVVQPGRSLRLSCAASGFTFSSYGMHWVRQAPGKGLEWVADIWYNGNNKYYADSVKGRFTISRDNSKNTLYLQMNSLRAEDTALYYCARDGGYSYGPFDYWGQGTLVTVSS
VL: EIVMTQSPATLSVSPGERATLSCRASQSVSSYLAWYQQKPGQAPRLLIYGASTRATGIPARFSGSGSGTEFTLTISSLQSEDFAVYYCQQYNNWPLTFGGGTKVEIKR
notes: Human IgG1; also called 59D6D2
B6: in assay [1], the EC50 was 0.192 nM and the “Maximum MFI” value came out at 45900 MFI. Moreover, in assay [2], the EC50 came out at 1.95 nM and the “Maximum MFI” value is 762000 MFI. Besides, in assay [3], the response was half-maximal at 1.24 nM (EC50) and the “Maximum MFI” value worked out at 389000 MFI. For the same molecule, in assay [4], the 50% inhibitory concentration (IC50) was 7.18 nM and the “Maximum inhibition rate (%)” value is 97.2%. The “Competitive inhibition rate (%)” value in assay [5] is -5.96%.

B7: PR003262 (antibody, human IgG1, kappa, V domains shown)
VH: QVQLVESGGGVVQPGRSLRLSCAASGFTFSRYGIHWVRQAPGKGLEWVAVIWYNGRNKYYVDSVKGRFTISRDNSKNTLYLQMNSLRAEDTAVYYCARDGGYSYGPFDYWGQGTLVTVSS
VL: EIVMTQSPATLSVSPGERATLSCRASQSFSNNLAWYQQKPGQAPRLLIYGASTRATGIPARFSGSGSGTEFTLTISSLQSEDFAVYYCHQYNIWPLTFGGGTKVEIKR
notes: Human IgG1; also called 77D5A4
For the molecule B7, the EC50 in assay [1] was determined as 0.041 nM; in assay [2], 1.33 nM; in assay [3] it was 0.59 nM. Moreover, the “Maximum MFI” value is 54000 MFI in assay [1], 822000 MFI in assay [2] and 419000 MFI in assay [3]. The molecule further returned an IC50 in assay [4] of 9.93 nM. The “Maximum inhibition rate (%)” value in assay [4] came to 105%. The “Competitive inhibition rate (%)” value in assay [5] is -2.6%.

B8: PR004260 (antibody, human IgG1, kappa, L234A L235A)
heavy: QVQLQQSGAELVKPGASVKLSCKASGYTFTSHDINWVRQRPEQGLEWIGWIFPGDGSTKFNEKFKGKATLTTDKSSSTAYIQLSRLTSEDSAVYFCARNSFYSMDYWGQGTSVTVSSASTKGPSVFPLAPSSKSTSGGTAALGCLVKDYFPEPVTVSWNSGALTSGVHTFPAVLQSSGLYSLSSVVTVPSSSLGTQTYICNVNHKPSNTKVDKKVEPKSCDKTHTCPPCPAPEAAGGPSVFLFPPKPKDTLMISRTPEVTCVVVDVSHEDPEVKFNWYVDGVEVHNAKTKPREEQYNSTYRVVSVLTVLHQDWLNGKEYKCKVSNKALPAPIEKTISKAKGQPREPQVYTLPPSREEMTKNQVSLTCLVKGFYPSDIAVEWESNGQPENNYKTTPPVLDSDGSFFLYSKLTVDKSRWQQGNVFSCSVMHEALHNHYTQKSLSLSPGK
light: DIVMSQSPSSLAVSAGEKVTMSCKSSQSLLNSRTRKNQLAWYQQKPGQSPKLLIYWASTRESGVPDRFTGSGSGTDFTLTISSVQAEDLAVYYCKQSYNLRTFGGGTKLEIKRTVAAPSVFIFPPSDEQLKSGTASVVCLLNNFYPREAKVQWKVDNALQSGNSQESVTEQDSKDSTYSLSSTLTLSKADYEKHKVYACEVTHQGLSSPVTKSFNRGEC
notes: Variant of PR003181; Human IgG1 with LALA mutation in Fc
In the case of B8, in assay [4], the IC50 came out at 8.51 nM and the “Maximum inhibition rate (%)” value is 96.2%.
